# Source: patent US20070078092A1 (CUREGENICS, published 2007)
# Numbered stars: 1 amine (or outer) side, 2 acyl side, 3 side chain; on linkers, the order of the positions; unused ones are H or OH. Square brackets hold non-standard residues; d marks the D form. Ends that are not written are not given here. * marks the point of attachment. Cholesteryloxycarbonyl = CC(C)CCC[C@@H](C)[C@H]1CC[C@H]2[C@@H]3CC=C4C[C@@H](OC(=O)*)CC[C@]4(C)[C@H]3CC[C@]12C; Ser(Me) = COC[C@H](N[*:1])C(=O)[*:2]; hLeu = CC(C)CC[C@H](N)C(=O)O; Nva = CCC[C@H](N)C(=O)O; Dap = NC[C@H](N)C(=O)O; GABA = NCCCC(=O)O; βAla = NCCC(=O)O
# B1: PTR 6296 (peptide)
# peptide: Cholesteryloxycarbonyl-[βAla]RPR[Nva]Y[Dap][hLeu]-NH2
# SMILES: CCC[C@H](NC(=O)[C@H](CCCNC(=N)N)NC(=O)[C@@H]1CCCN1C(=O)[C@H](CCCNC(=N)N)NC(=O)CCNC(=O)O[C@H]1CC[C@@]2(C)C(=CC[C@H]3[C@@H]4CC[C@H]([C@H](C)CCCC(C)C)[C@@]4(C)CC[C@@H]32)C1)C(=O)N[C@@H](Cc1ccc(O)cc1)C(=O)N[C@@H](CN)C(=O)N[C@@H](CCC(C)C)C(N)=O
# B2: PTR 6318 (peptide)
# peptide: Cholesteryloxycarbonyl-[dK][dK]RPR[Nva]Y[Dap][hLeu]-NH2
# SMILES: CCC[C@H](NC(=O)[C@H](CCCNC(=N)N)NC(=O)[C@@H]1CCCN1C(=O)[C@H](CCCNC(=N)N)NC(=O)[C@@H](CCCCN)NC(=O)[C@@H](CCCCN)NC(=O)O[C@H]1CC[C@@]2(C)C(=CC[C@H]3[C@@H]4CC[C@H]([C@H](C)CCCC(C)C)[C@@]4(C)CC[C@@H]32)C1)C(=O)N[C@@H](Cc1ccc(O)cc1)C(=O)N[C@@H](CN)C(=O)N[C@@H](CCC(C)C)C(N)=O
# B3: PTR 6312 (peptide)
# peptide: [dK][dK][dK][dK][dK][dK][dK][dK]RPR[Nva]Y[Dap][hLeu]K(Cholesteryloxycarbonyl)-NH2
# modifications: N-terminus assumed
# SMILES: CCC[C@H](NC(=O)[C@H](CCCNC(=N)N)NC(=O)[C@@H]1CCCN1C(=O)[C@H](CCCNC(=N)N)NC(=O)[C@@H](CCCCN)NC(=O)[C@@H](CCCCN)NC(=O)[C@@H](CCCCN)NC(=O)[C@@H](CCCCN)NC(=O)[C@@H](CCCCN)NC(=O)[C@@H](CCCCN)NC(=O)[C@@H](CCCCN)NC(=O)[C@H](N)CCCCN)C(=O)N[C@@H](Cc1ccc(O)cc1)C(=O)N[C@@H](CN)C(=O)N[C@@H](CCC(C)C)C(=O)N[C@@H](CCCCNC(=O)O[C@H]1CC[C@@]2(C)C(=CC[C@H]3[C@@H]4CC[C@H]([C@H](C)CCCC(C)C)[C@@]4(C)CC[C@@H]32)C1)C(N)=O
# B4: PTR 6962 (peptide)
# peptide: Cholesteryloxycarbonyl-[dK][dK][dK][dK][dK][dK][dK][dK]RPR[Nva]Y[Dap][hLeu]-NH2
# SMILES: CCC[C@H](NC(=O)[C@H](CCCNC(=N)N)NC(=O)[C@@H]1CCCN1C(=O)[C@H](CCCNC(=N)N)NC(=O)[C@@H](CCCCN)NC(=O)[C@@H](CCCCN)NC(=O)[C@@H](CCCCN)NC(=O)[C@@H](CCCCN)NC(=O)[C@@H](CCCCN)NC(=O)[C@@H](CCCCN)NC(=O)[C@@H](CCCCN)NC(=O)[C@@H](CCCCN)NC(=O)O[C@H]1CC[C@@]2(C)C(=CC[C@H]3[C@@H]4CC[C@H]([C@H](C)CCCC(C)C)[C@@]4(C)CC[C@@H]32)C1)C(=O)N[C@@H](Cc1ccc(O)cc1)C(=O)N[C@@H](CN)C(=O)N[C@@H](CCC(C)C)C(N)=O
# B5: PTR 6322 (peptide)
# peptide: Cholesteryloxycarbonyl-[dK][dK][dK][dK]RPR[Nva]Y[Dap][hLeu]-NH2
# SMILES: CCC[C@H](NC(=O)[C@H](CCCNC(=N)N)NC(=O)[C@@H]1CCCN1C(=O)[C@H](CCCNC(=N)N)NC(=O)[C@@H](CCCCN)NC(=O)[C@@H](CCCCN)NC(=O)[C@@H](CCCCN)NC(=O)[C@@H](CCCCN)NC(=O)O[C@H]1CC[C@@]2(C)C(=CC[C@H]3[C@@H]4CC[C@H]([C@H](C)CCCC(C)C)[C@@]4(C)CC[C@@H]32)C1)C(=O)N[C@@H](Cc1ccc(O)cc1)C(=O)N[C@@H](CN)C(=O)N[C@@H](CCC(C)C)C(N)=O
# B6: PTR 6304 (peptide)
# peptide: Cholesteryloxycarbonyl-RPR[Nva]Y[Ser(Me)][hLeu]-NH2
# SMILES: CCC[C@H](NC(=O)[C@H](CCCNC(=N)N)NC(=O)[C@@H]1CCCN1C(=O)[C@H](CCCNC(=N)N)NC(=O)O[C@H]1CC[C@@]2(C)C(=CC[C@H]3[C@@H]4CC[C@H]([C@H](C)CCCC(C)C)[C@@]4(C)CC[C@@H]32)C1)C(=O)N[C@@H](Cc1ccc(O)cc1)C(=O)N[C@@H](COC)C(=O)N[C@@H](CCC(C)C)C(N)=O
# B7: PTR 6308 (peptide)
# peptide: Cholesteryloxycarbonyl-[βAla]RPR[Nva]Y[Ser(Me)][hLeu]-NH2
# SMILES: CCC[C@H](NC(=O)[C@H](CCCNC(=N)N)NC(=O)[C@@H]1CCCN1C(=O)[C@H](CCCNC(=N)N)NC(=O)CCNC(=O)O[C@H]1CC[C@@]2(C)C(=CC[C@H]3[C@@H]4CC[C@H]([C@H](C)CCCC(C)C)[C@@]4(C)CC[C@@H]32)C1)C(=O)N[C@@H](Cc1ccc(O)cc1)C(=O)N[C@@H](COC)C(=O)N[C@@H](CCC(C)C)C(N)=O
# B8: PTR 6294 (peptide)
# peptide: Cholesteryloxycarbonyl-GRPR[Nva]Y[Dap][hLeu]-NH2
# SMILES: CCC[C@H](NC(=O)[C@H](CCCNC(=N)N)NC(=O)[C@@H]1CCCN1C(=O)[C@H](CCCNC(=N)N)NC(=O)CNC(=O)O[C@H]1CC[C@@]2(C)C(=CC[C@H]3[C@@H]4CC[C@H]([C@H](C)CCCC(C)C)[C@@]4(C)CC[C@@H]32)C1)C(=O)N[C@@H](Cc1ccc(O)cc1)C(=O)N[C@@H](CN)C(=O)N[C@@H](CCC(C)C)C(N)=O
# B9: PTR 6306 (peptide)
# peptide: Cholesteryloxycarbonyl-GRPR[Nva]Y[Ser(Me)][hLeu]-NH2
# SMILES: CCC[C@H](NC(=O)[C@H](CCCNC(=N)N)NC(=O)[C@@H]1CCCN1C(=O)[C@H](CCCNC(=N)N)NC(=O)CNC(=O)O[C@H]1CC[C@@]2(C)C(=CC[C@H]3[C@@H]4CC[C@H]([C@H](C)CCCC(C)C)[C@@]4(C)CC[C@@H]32)C1)C(=O)N[C@@H](Cc1ccc(O)cc1)C(=O)N[C@@H](COC)C(=O)N[C@@H](CCC(C)C)C(N)=O
# B10: PTR 6298 (peptide)
# peptide: Cholesteryloxycarbonyl-[GABA]RPR[Nva]Y[Dap][hLeu]-NH2
# SMILES: CCC[C@H](NC(=O)[C@H](CCCNC(=N)N)NC(=O)[C@@H]1CCCN1C(=O)[C@H](CCCNC(=N)N)NC(=O)CCCNC(=O)O[C@H]1CC[C@@]2(C)C(=CC[C@H]3[C@@H]4CC[C@H]([C@H](C)CCCC(C)C)[C@@]4(C)CC[C@@H]32)C1)C(=O)N[C@@H](Cc1ccc(O)cc1)C(=O)N[C@@H](CN)C(=O)N[C@@H](CCC(C)C)C(N)=O
# B11: PTR 6320 (peptide)
# peptide: Cholesteryloxycarbonyl-[dK][dK][dK]RPR[Nva]Y[Dap][hLeu]-NH2
# SMILES: CCC[C@H](NC(=O)[C@H](CCCNC(=N)N)NC(=O)[C@@H]1CCCN1C(=O)[C@H](CCCNC(=N)N)NC(=O)[C@@H](CCCCN)NC(=O)[C@@H](CCCCN)NC(=O)[C@@H](CCCCN)NC(=O)O[C@H]1CC[C@@]2(C)C(=CC[C@H]3[C@@H]4CC[C@H]([C@H](C)CCCC(C)C)[C@@]4(C)CC[C@@H]32)C1)C(=O)N[C@@H](Cc1ccc(O)cc1)C(=O)N[C@@H](CN)C(=O)N[C@@H](CCC(C)C)C(N)=O
# Molecular target: protein kinase B (PKB)
# Experiment: cell-based or functional assay
row,Binder,"IC50, in vitro kinase assay PKB"
1,B1,2000 nM
2,B2,200 nM
3,B3,100 nM
4,B4,100 nM
5,B5,100 nM
6,B6,500 nM
7,B7,500 nM
8,B8,1000 nM
9,B9,500 nM
10,B10,2000 nM
11,B11,200 nM
